Where two headings read alike, the source gives them in different places.

Data set [1] has as its target T1, p73β (UniProt O15350-2 1-499).
T1 sequence: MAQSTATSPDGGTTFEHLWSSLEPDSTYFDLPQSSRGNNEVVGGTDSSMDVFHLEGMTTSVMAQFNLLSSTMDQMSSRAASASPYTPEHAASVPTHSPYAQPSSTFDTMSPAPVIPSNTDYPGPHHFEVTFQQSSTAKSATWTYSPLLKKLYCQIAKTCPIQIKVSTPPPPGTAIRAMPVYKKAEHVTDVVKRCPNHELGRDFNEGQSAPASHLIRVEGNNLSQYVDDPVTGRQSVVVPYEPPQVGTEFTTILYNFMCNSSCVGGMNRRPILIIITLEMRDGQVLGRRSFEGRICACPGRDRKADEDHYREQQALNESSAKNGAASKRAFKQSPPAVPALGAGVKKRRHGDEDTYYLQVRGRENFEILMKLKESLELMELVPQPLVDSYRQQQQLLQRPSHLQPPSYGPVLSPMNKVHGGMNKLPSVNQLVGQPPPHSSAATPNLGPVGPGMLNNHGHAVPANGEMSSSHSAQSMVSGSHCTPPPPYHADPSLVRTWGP
In words: EMSA. A general note: In EMSA bound probe runs differently from free probe, usually more slowly.

For data set [2], the target named is T2, p53 (UniProt P04637 1-393). In words: EMSA.
T2 sequence (P04637 whole entry): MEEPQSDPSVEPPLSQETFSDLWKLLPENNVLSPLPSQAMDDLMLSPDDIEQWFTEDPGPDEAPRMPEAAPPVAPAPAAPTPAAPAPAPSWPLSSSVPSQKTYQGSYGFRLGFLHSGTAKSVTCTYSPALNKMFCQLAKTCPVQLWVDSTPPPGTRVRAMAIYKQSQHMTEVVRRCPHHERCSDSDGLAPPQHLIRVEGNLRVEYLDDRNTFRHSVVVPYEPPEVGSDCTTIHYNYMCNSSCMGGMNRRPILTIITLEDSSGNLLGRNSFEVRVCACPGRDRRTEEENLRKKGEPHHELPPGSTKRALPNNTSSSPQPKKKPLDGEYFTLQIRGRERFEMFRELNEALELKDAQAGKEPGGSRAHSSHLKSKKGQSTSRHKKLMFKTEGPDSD
The target in data set [3] is T3, p73α (UniProt O15350 1-636).
T3 sequence: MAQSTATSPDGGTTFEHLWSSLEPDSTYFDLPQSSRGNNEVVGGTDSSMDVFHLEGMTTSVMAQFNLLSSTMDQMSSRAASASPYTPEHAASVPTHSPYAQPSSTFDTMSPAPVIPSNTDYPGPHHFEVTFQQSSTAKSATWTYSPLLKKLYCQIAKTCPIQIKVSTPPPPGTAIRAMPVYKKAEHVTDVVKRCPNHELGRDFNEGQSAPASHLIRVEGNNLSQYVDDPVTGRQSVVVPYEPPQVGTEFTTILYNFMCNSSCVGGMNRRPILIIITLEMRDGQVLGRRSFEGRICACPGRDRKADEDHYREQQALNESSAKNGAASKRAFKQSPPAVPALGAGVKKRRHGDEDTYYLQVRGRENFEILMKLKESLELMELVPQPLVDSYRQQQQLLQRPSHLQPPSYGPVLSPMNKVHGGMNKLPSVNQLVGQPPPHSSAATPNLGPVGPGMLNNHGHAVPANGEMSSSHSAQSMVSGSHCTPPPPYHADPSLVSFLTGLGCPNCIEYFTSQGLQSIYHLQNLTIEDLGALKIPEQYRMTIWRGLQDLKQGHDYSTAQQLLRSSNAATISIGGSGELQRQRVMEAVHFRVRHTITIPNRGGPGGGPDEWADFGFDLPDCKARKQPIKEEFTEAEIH
Nature of the data set: EMSA.

Data set [4] addresses T1, p73β. In words: EMSA. This is another data set of the same source.
Data set [5] concerns the target T2, p53. In words: EMSA. This is another data set of the same source.
Data set [6] has as its target T4, ΔNp63β (UniProt Q9H3D4-4 1-461).
T4 sequence: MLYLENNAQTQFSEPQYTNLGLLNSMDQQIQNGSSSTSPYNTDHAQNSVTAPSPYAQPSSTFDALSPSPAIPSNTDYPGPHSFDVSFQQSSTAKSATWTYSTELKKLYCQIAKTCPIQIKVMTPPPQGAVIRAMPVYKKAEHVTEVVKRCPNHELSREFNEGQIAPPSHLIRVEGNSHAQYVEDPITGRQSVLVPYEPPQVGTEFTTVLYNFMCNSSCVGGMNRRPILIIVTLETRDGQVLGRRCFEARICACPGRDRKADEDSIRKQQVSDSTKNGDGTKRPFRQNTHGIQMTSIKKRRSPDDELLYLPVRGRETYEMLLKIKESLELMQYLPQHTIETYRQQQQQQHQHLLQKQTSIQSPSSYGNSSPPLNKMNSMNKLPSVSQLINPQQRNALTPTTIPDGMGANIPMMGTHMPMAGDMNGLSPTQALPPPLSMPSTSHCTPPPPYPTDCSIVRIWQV
In words: EMSA.

Data set [7] addresses T5, p73β(C262S) (UniProt O15350-2 1-499, C262S).
T5 sequence: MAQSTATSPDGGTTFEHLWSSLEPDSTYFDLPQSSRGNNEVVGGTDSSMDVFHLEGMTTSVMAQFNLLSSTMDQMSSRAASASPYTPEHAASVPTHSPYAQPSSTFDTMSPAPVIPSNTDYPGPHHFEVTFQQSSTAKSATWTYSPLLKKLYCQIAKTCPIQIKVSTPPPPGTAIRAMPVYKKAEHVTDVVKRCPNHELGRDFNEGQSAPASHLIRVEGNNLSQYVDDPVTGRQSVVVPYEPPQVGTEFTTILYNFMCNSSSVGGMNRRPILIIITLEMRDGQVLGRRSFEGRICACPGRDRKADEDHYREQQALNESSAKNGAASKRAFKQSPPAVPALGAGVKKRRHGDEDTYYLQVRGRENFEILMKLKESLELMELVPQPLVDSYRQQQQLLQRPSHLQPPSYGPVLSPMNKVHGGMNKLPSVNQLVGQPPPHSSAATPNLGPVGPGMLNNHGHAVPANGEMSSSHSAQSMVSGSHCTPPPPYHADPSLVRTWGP
In words: DNA immunobinding assay.

For data set [8], the target named is T1, p73β. Nature of the data set: EMSA. The source holds these as a separate data set.
The target in data set [9] is T1, p73β. Nature of the data set: EMSA. This is another data set of the same source.

B1: PPC (dsDNA)
DNA 1: AGCTAGTAGAGCTGGCATGTCCCGACTTGTTAGCGTGCTGCAGC
DNA 2: GCTGCAGCACGCTAACAAGTCGGGACATGCCAGCTCTACTAGCT
Turning to B1, the binding result in [1] and in [2] was “binds” each time.

B2: p21 5' site (dsDNA)
DNA 1: AGCTAGTAGAGCGAACATGTCCCAACATGTTGGCGTGCTGCAGC
DNA 2: GCTGCAGCACGCCAACATGTTGGGACATGTTCGCTCTACTAGCT
Take B2: the binding result in data set [3], in data set [4], in data set [5] and in [6] was “binds” throughout. Moreover, the binding signal in data set [7] is 1.5 fold over background.

B3: PIG3 (dsDNA)
DNA 1: AGCTAGTAGAGCCAGCTTGCCCACCCATGCTCGCGTGCTGCAGC
DNA 2: GCTGCAGCACGCGAGCATGGGTGGGCAAGCTGGCTCTACTAGCT
B3: the binding result in data set [5] and in data set [8] was “binds” each time.

B4: PUMA (dsDNA)
DNA 1: AGCTAGTAGAGCCTGCAAGTCCTGACTTGTCCGCGTGCTGCAGC
DNA 2: GCTGCAGCACGCGGACAAGTCAGGACTTGCAGGCTCTACTAGCT
With B4, in [9], the binding result was “binds”.

These data come from PMC1802567.
